Results as given in patent US20260158153A1, “BCMA MONOCLONAL ANTIBODY AND THE ANTIBODY-DRUG CONJUGATE” (priority 2021, published 2026).
Values belong to the molecule of their own block, whether it stands above or below them.

Assays:
JJN-3 cell xenograft = experiment: Antitumor activity in vivo, JJN-3 cell xenograft mouse model of multiple myeloma; details: FIG. 10; single dose 5 mg/Kg
MM1S = experiment: MTT in vitro cytotoxicity assay of BCMA antibody conjugates, MM1S; assay type: cell-based; details: Homo sapiens, MM1.S, 6000 cells, 96 h incubation, conjugates prepared via homogeneous conjugation process
Procedure: (§1) The cell lines used in the cytotoxicity assays were (1). NCI-H929, JJN3, U266, and MM1S were obtained from ATCC, and 8226-2A1cell is Myeloma antigen express cells through culturing and clone-picking of ATCC's RPMI-8226. The cells were grown according to the provider manuals. To run the assay, the cells (180 μl, 6000 cells) were added to each well in a 96-well plate and incubated for 24 hours at 37° C. with 5% CO2. Next, the cells were treated with test compounds (20 μl) at various concentrations in appropriate cell culture medium (total volume, 0.2 mL). The control wells contain cells and the medium but lack the test compounds. […] MTT (5 mg/mL) was then added to the wells (20 μl) and the plates were incubated for 1.5 hr at 37° C. The medium was carefully removed and DMSO (180 μl) was added afterward. After it was shaken for 15 min, the absorbance was measured at 490 nm and 570 nm with a reference filter of 620 nm. The inhibition % was calculated according to the following equation: inhibition %=[1−(assay-blank)/(control-blank)]×100.

NCI-H929 = experiment: MTT in vitro cytotoxicity assay of BCMA antibody conjugates, NCI-H929; assay type: cell-based; details: Homo sapiens, 6000 cells, 96 h incubation, conjugates prepared via homogeneous conjugation process
Procedure: as §1

JJN-3 = experiment: MTT in vitro cytotoxicity assay of BCMA antibody conjugates, JJN-3; assay type: cell-based; details: Homo sapiens, 6000 cells, 96 h incubation, conjugates prepared via homogeneous conjugation process
Procedure: as §1

[1] = test system: multiple myeloma (MM) patients; details: cited from earlier work
[2] = target: T1, Human B cell maturation antigen (BCMA, CD269) (human, UniProt Q02223 1-54); experiment: ELISA, plate coated with 1 ug/ml soluble BCMA (recombinant TrxA-BCMA), OD450 against IgG concentration
T1 construct: Flow cytometry used whole BCMA on NCI-H929 and RPMI-8226-BCMA cells; also called hBCMA
T1 sequence: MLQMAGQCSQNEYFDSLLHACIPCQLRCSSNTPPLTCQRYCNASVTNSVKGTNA

[3] = target: T1, Human B cell maturation antigen (BCMA, …); experiment: ELISA on recombinant TrxA-BCMA, OD450 against IgG concentration
[4] = target: T1, Human B cell maturation antigen (BCMA, …); experiment: flow cytometry on NCI-H929 cells with endogenous BCMA, PE anti-human IgG Fc secondary, MFI against concentration

Molecule: CC(=O)O[C@H]1C(=O)[C@@]2(C)[C@H]([C@H](OC(=O)c3ccccc3)[C@]3(O)C[C@H](OC(=O)[C@H](O)[C@@H](NC(=O)c4ccccc4)c4ccccc4)C(C)=C1C3(C)C)[C@]1(OC(C)=O)CO[C@@H]1C[C@@H]2O [Paclitaxel]
- orders of the antitumor activity (JJN-3 cell xenograft): Paclitaxel<C-385
- IC50 (MM1S): 3.28 nM
- IC50 (NCI-H929): 2.89 nM
- IC50 (JJN-3): 4.31 nM

Molecule: Belantamabmafodotin
- overall response rate ([1]; for MM): 32%
- patients reported ocular toxicities requiring dose adjustments, dose delays and treatment discontinuations ([1]; patients with this ADC): over 60%

B5: J6M0 (antibody, V domains shown)
VH: QVQLVQSGAEVKKPGSSVKVSCKASGGTFSNYWMHWVRQAPGQGLEWMGATYRGHSDTYYNQKFKGRVTITADKSTSTAYMELSSLRSEDTAVYYCARGAIYDGYDVLDNWGQGTLVTVSS
VL: DIQMTQSPSSLSASVGDRVTITCSASQDISNYLNWYQQKPGKAPKLLIYYTSNLHSGVPSRFSGSGSGTDFTLTISSLQPEDFATYYCQQYRKLPWTFGQGTKLEIK
- EC50 (read off the curve) [2]: ~0.06 µg/mL
- EC50 (read off the curve) [3]: ~0.04 µg/mL

Results, then the molecule that gave them:

- EC50 (read off the curve) [2]: ~0.01 µg/mL
- EC50 (read off the curve) [3]: ~0.09 µg/mL
B1: Hybridoma monoclonal antibody BCMA-A2-6H4-5D2 (antibody, V domains shown)
VH: EVQLQQSGPELVKPGASVKMSCKASGYTFTSFLIHWVKQKPGQGLEWIGFIIPYNDGTKYNEKFKGKATLTSDKSSSTAYMELSSLTSEDSAVYYCARYDGSFEGYFDVWGAGTTLTVSS
VL: DVLMTQTPLSLPVSLRDQASISCRSSQSLVHSDGNTYLHWYLQKPGQSPKLLIYKVSNRFSGVPDRFSGSGSGTDFTLKISRVEAEDLGVYFCSQSTHVPWTFGGGTKLEIK
notes: Murine hybridoma antibody from BalB/c mice; also called clone BCMA-A2-6H4-5D2; CCTCC C2022188

- EC50 (read off the curve) [2]: ~0.02 µg/mL
- EC50 (read off the curve) [4]: ~0.05 µg/mL
B2: Humanized antibody hu5D2 (antibody, human IgG1, kappa, V domains shown)
VH: QVQLVQSGAEVVKPGASVKMSCKASGYTFTSFLIHWVKQAPGQGLEWIGFIIPGNGGTKYNQKFQGKATLTSDTSSSTAYMELSSLRSEDSAVYYCARYDGSFEGYFDVWGQGTTLTVSS
VL: DVVMTQSPLSLPVSLRQPASISCRSSQSLVHSDGNTYLHWYLQKPGQSPRLLIYKVSNRDSGVPDRFSGSGSGTDFTLKISRVEAEDLGVYFCSQSTHWPWTFGQGTKLEIKR
modifications: N-linked glycan at Asn300
notes: also called Hu5D2 antibody; BCMA antibody

- EC50 (read off the curve) [4]: ~0.06 µg/mL
B3: hu5D2-Tub (antibody, human IgG1, kappa, V domains shown)
VH: QVQLVQSGAEVVKPGASVKMSCKASGYTFTSFLIHWVKQAPGQGLEWIGFIIPGNGGTKYNQKFQGKATLTSDTSSSTAYMELSSLRSEDSAVYYCARYDGSFEGYFDVWGQGTTLTVSS
VL: DVVMTQSPLSLPVSLRQPASISCRSSQSLVHSDGNTYLHWYLQKPGQSPRLLIYKVSNRDSGVPDRFSGSGSGTDFTLKISRVEAEDLGVYFCSQSTHWPWTFGQGTKLEIKR
modifications: conjugated to a tubulysin analog payload; sites and drug/antibody ratio of the lot used in Fig. 3 are not given
notes: Antibody-drug conjugate of hu5D2; also called hu5D2 conjugated ADC; hu5D2-tub196

- EC50 (read off the curve) [2]: ~0.05 µg/mL
B4: c5D2 (antibody, human IgG1, kappa, V domains shown)
VH: EVQLQQSGPELVKPGASVKMSCKASGYTFTSFLIHWVKQKPGQGLEWIGFIIPYNDGTKYNEKFKGKATLTSDKSSSTAYMELSSLTSEDSAVYYCARYDGSFEGYFDVWGAGTTLTVSS
VL: DVLMTQTPLSLPVSLRDQASISCRSSQSLVHSDGNTYLHWYLQKPGQSPKLLIYKVSNRFSGVPDRFSGSGSGTDFTLKISRVEAEDLGVYFCSQSTHVPWTFGGGTKLEIKT
notes: VH/VL of BCMA-A2-6H4-5D2 fused to human IgG1 and kappa constant domains; also called chimeric antibody c5D2
